Results from article PMC7921410, “Structure of mammalian Mediator complex reveals Tail module architecture and interaction with a conserved core” (Nature Communications, 2021).
Blank lines part the entries; values can stand above or below the binder they belong to.

How the values were obtained:
Test in all cases: cryo-EM structure; endogenous mouse Mediator immunopurified from CH12 nuclear extract through 3×FLAG-MED19 or 3×FLAG-MED25; eluted in 50 mM HEPES pH 7.9, 100 mM KCl, 5% glycerol, 1 mM EDTA, 0.005% NP-40; map at 4.0 Å overall, focused refinement of the MED1 and knob/hook ends (6-10 Å)
Settings in all cases: both partners purified
[1] = target: T1, MED7 (mouse (Mus musculus; endogenous in CH12), UniProt Q9CZB6 1-233)
T1 construct: MED7, Mus musculus, endogenous Middle module subunit of Mediator; source: endogenous, CH12 mouse B lymphoma nuclear extract; immunopurified as part of Mediator (FLAG M2 agarose, FLAG peptide elution)
T1 sequence (looked up): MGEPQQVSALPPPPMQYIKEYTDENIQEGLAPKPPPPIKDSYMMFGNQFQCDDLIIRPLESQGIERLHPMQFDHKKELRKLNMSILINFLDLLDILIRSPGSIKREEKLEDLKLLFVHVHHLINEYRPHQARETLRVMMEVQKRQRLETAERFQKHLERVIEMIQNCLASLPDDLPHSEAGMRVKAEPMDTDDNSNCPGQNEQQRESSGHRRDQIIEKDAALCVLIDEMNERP

[2] = target: T2, MED4 (mouse (Mus musculus; endogenous in CH12), UniProt Q9CQA5 1-270)
T2 construct: MED4, Mus musculus, endogenous Middle module subunit of Mediator; source: endogenous, CH12 mouse B lymphoma nuclear extract; immunopurified as part of Mediator (FLAG M2 agarose, FLAG peptide elution)
T2 sequence (looked up): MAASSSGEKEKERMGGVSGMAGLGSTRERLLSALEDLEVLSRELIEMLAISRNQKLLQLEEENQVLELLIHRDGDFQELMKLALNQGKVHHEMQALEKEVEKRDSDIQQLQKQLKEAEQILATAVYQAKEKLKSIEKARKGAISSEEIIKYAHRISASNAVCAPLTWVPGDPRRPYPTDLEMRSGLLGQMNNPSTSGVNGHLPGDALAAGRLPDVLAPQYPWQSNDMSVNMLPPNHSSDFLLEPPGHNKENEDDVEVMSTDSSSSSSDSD

[3] = target: T3, MED1 (mouse (Mus musculus; endogenous in CH12), UniProt Q925J9 1-1575)
T3 construct: MED1, Mus musculus, endogenous Middle module subunit of Mediator; only a partial model of the folded N-terminal portion was built; Partial model only; this part of the map is at about 6-8 Å; also called Mediator subunit MED1; source: endogenous, CH12 mouse B lymphoma nuclear extract; immunopurified as part of Mediator (FLAG M2 agarose, FLAG peptide elution)
T3 sequence (Q925J9 whole entry): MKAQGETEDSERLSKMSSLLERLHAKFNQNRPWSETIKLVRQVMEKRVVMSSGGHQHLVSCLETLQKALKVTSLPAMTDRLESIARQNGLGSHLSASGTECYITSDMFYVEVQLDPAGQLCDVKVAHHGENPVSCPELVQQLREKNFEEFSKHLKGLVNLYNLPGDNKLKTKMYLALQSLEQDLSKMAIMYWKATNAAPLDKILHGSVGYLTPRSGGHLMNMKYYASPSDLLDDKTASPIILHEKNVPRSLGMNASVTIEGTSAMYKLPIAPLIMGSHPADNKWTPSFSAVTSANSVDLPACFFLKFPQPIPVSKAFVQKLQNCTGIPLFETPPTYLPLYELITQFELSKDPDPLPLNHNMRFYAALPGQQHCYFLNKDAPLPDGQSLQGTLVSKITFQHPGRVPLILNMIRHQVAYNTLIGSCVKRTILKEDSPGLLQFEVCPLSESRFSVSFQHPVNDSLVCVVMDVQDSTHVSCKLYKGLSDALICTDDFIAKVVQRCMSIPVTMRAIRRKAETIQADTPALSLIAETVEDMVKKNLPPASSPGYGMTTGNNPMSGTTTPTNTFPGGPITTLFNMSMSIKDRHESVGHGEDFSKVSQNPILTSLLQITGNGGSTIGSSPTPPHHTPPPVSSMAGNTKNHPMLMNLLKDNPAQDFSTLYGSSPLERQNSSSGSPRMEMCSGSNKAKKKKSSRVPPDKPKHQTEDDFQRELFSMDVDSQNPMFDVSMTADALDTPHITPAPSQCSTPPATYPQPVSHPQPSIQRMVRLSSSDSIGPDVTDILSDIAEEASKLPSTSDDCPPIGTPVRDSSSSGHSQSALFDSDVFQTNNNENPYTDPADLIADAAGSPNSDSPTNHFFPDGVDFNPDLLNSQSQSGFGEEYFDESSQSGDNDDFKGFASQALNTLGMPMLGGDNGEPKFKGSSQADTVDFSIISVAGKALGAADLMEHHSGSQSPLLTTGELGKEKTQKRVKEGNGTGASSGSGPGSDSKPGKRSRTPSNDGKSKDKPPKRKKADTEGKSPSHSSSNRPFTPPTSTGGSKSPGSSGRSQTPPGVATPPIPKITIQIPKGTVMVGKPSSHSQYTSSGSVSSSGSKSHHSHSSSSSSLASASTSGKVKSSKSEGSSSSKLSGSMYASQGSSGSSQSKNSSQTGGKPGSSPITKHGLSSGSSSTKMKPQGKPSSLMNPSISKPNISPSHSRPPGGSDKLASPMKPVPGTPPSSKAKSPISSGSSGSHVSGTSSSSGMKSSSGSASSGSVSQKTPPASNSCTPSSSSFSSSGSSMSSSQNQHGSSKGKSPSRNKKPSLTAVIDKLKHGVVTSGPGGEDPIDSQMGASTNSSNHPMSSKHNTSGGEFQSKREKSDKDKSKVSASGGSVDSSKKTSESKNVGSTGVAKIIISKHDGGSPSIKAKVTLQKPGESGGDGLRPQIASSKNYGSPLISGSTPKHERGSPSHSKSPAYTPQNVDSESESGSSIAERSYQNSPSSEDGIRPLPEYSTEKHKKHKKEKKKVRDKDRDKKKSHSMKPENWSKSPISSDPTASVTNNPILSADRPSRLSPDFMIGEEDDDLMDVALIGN

binding result [1]: binds
B1: MED21 (natural protein, mouse (Mus musculus; endogenous in CH12), UniProt Q9CQ39 1-144, looked up)
chain: MADRLTQLQDAVNSLADQFCNAIGVLQQCGPPASFSNIQTAINKDQPANPTEEYAQLFAALIARTAKDIDVLIDSLPSEESTAALQAASLYKLEEENHEAATCLEDVVYRGDMLLEKIQSALADIAQSQLKTRSVTHSHSLPDS
notes: MED21, Mus musculus, endogenous Middle module subunit of Mediator; source: endogenous, CH12 mouse B lymphoma nuclear extract; immunopurified as part of Mediator (FLAG M2 agarose, FLAG peptide elution)

binding result [2]: binds
binding result [3]: binds
B2: MED9 (natural protein, mouse (Mus musculus; endogenous in CH12), UniProt Q8VCS6 1-142, looked up)
chain: MASSGVAGGRQAEDTLQPPPELLPESKPPPPPQPLPVAALPPPAAPRPQSPAGAKEENYSFLPLVHNVIKCMDKDSPDLHQDLNALKTKFQELRKLIGTMPGIHVSPEQQQQQLHSLREQVRTKNELLQKYKSLCMFEIPKD
notes: MED9, Mus musculus, endogenous Middle module subunit of Mediator; source: endogenous, CH12 mouse B lymphoma nuclear extract; immunopurified as part of Mediator (FLAG M2 agarose, FLAG peptide elution)
